System: hepatoma organoids isolated from liver cancer tissue
Assay: Effects of medium additives on proliferation of hepatoma organoids (Example 1)
Format: cell-based, human
Settings: additive in basic medium at the final concentration; organoid diameters after 7 days compared with Basic Medium
Method: First, a basic medium containing initial medium was prepared. […] In this embodiment, the formulation of the basic medium is: DMEM/F12 medium (purchased from Corning)+100 μg/mL Primocin (purchased from InvivoGen, 0.2% (v/v), commercial product has a concentration of 50 mg/ml).
Different types of additives (see Table 1) were added to the basic medium to prepare culture mediums for hepatoma organoid with different components.
Tissue samples (intraoperative) of liver cancer solid tumor were obtained from patients by professional medical practitioner of professional medical institutions, and all patients have signed the informed consent. Intraoperative samples having the size of 0.25 cm3 were stored and transported using commercial tissue preservation solution (manufacturer: Miltenyi Biotec).
• 3.1. Tissue samples were transferred from the ultra-clean workbench to a culture dish, and the tissue with blood was removed. […] The completion of digestion was determined via observation every 30 minutes, based on the existing of visible particles or not. • 3.4. […]
The primary liver cancer cells obtained in the above steps were resuspended with pre-cooled DMEM/F12 and counted. […] After 7 days, the cultured organoids were photographed and the diameters of the organoids were measured and compiled, so as to compare the promoting effects of various factors on the proliferation of hepatoma organoids. […]

B1: R-spondin1: R-spondin family protein, medium additive, supplier R&D (protein, UniProt Q2MKA7 21-263, looked up)
R-spondin-1: SRGIKGKRQRRISAEGSQACAKGCELCSEVNGCLKCSPKLFILLERNDIRQVGVCLPSCPPGYFDARNPDMNKCIKCKIEHCEACFSHNFCTKCKEGLYLHKGRCYPACPEGSSAANGTMECSSPAQCEMSEWSPWGPCSKKQQLCGFRRGSEERTRRVLHAPVGDHAACSDTKETRRCTVRRVPCPEGQKRRKGGQGRRENANRNLARKESKEAGAGSRRRKGQQQQQQQGTVGPLTSAGPA
B1 was tested, and the “Level of promoting proliferation” value was “+”.

— patent US20250129329A1, “CULTURE MEDIUM FOR HEPATOMA ORGANOID CULTURE, HEPATOMA ORGANOID CULTURE METHOD, AND APPLICATION THEREOF” (PRECEDO PHARMACEUTICALS CO., LTD, priority 2021, published 2025)
